Results on 17 variants are retold here after the supplement of paper PMC7125110.

The chains are these.
B1: glmS ribozyme (parent)
chain: AUAAAAGCGCCAGAACUACAGAAAUGUAGUUGACGAGGAGGAGGUUUAUCGAAUUUUCGGCGGAUGCCUCCAAA

Holding throughout (details): with glucosamine-6-phosphate
Data set [1] covers variants of B1. Briefly: kcat; higher = faster cleavage; RNA array. In short, it runs like this:
(§1)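 Glucosamine-6-phosphate, from 40 μM to 10 mM in HEPES/KCl/Mg(OAc)2 buffer, was flowed over sequenced MiSeq chips carrying barcoded ribozyme variants transcribed in situ by E. coli RNA polymerase. A hybridised Cy3 probe tracked the variants at 37 °C as tiles were imaged over ~14 h. kobs, kcat and KM were obtained by fitting normalised per-tile medians to exponential decays and then applying weighted Michaelis–Menten fits across concentrations.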

In data set [2] the parent is B1. Briefly: KM; higher = weaker cofactor use; RNA array. A digest of the protocol: as §1
Variants of B1 are the subject of data set [3]. Briefly: self-cleavage kobs at 640 uM GlcN6P; higher = faster cleavage; RNA array. A digest of the protocol:
as §1

Variants of B1 are the subject of data set [4]. Briefly: self-cleavage kobs at 2500 uM GlcN6P; higher = faster cleavage; RNA array. A digest of the protocol: as §1
Data set [5] covers variants of B1. Briefly: self-cleavage kobs at 10000 uM GlcN6P; higher = faster cleavage; RNA array. A digest of the protocol:
as §1

In data set [6] the parent is B1. Briefly: self-cleavage kobs at 40 uM GlcN6P; higher = faster cleavage; RNA array. In short, it runs like this: as §1
In data set [7] the parent is B1. Briefly: self-cleavage kobs at 160 uM GlcN6P; higher = faster cleavage; RNA array. In short, it runs like this: as §1

± gives the standard error. For part of these data: Fewer inactive variants are shown than the library holds. Bounds are passed on as bounds.

As to U31G A48U U55G A64G, the kcat with glucosamine-6-phosphate [1] turned out to be 0.000666 ± 0.00016 s⁻¹. In addition, the KM in the data set with glucosamine-6-phosphate [2] came to 3200 ± 1500 µM. In the data set with glucosamine-6-phosphate [3], the “self-cleavage kobs at 640 uM GlcN6P” value is 0.0001 ± 2.9e-05 s⁻¹. The “self-cleavage kobs at 2500 uM GlcN6P” value with glucosamine-6-phosphate [4] is 0.000437 ± 0.00013 s⁻¹. In the data set with glucosamine-6-phosphate [5], the “self-cleavage kobs at 10000 uM GlcN6P” value came to 0.000484 ± 9.1e-05 s⁻¹.
For G32A A52G, the kcat in the data set with glucosamine-6-phosphate [1] was found to be 0.000151 ± 1.3e-05 s⁻¹. For the same variant, in the data set with glucosamine-6-phosphate [2], the KM is 1760 ± 480 µM. In addition, the “self-cleavage kobs at 640 uM GlcN6P” value with glucosamine-6-phosphate [3] stood at 5.19e-05 ± 2e-05 s⁻¹. In addition, the “self-cleavage kobs at 2500 uM GlcN6P” value with glucosamine-6-phosphate [4] was found to be 8.18e-05 ± 1.4e-05 s⁻¹. Further, the “self-cleavage kobs at 10000 uM GlcN6P” value with glucosamine-6-phosphate [5] amounted to 0.000131 ± 1.5e-05 s⁻¹.
Take C50G C58A G62C G63C C70A: the kcat in the data set with glucosamine-6-phosphate [1] came to 0.000121 ± 3.1e-05 s⁻¹. Also, the “self-cleavage kobs at 40 uM GlcN6P” value with glucosamine-6-phosphate [6] turned out to be 4.49e-05 ± 1.7e-05 s⁻¹. Also, the “self-cleavage kobs at 160 uM GlcN6P” value with glucosamine-6-phosphate [7] was determined as 0.000204 ± 4.8e-05 s⁻¹. In the data set with glucosamine-6-phosphate [3], the “self-cleavage kobs at 640 uM GlcN6P” value came out at 0.000166 ± 4.1e-05 s⁻¹. Also, the “self-cleavage kobs at 2500 uM GlcN6P” value with glucosamine-6-phosphate [4] came to 0.000239 ± 5.5e-05 s⁻¹. For the same variant, the “self-cleavage kobs at 10000 uM GlcN6P” value with glucosamine-6-phosphate [5] amounted to 9.95e-05 ± 1.6e-05 s⁻¹.
As for A12U A52C C67A, the kcat with glucosamine-6-phosphate [1] came to 2.65e-05 ± 5e-06 s⁻¹.
For the variant G13A A53U C58A, the kcat with glucosamine-6-phosphate [1] is 0.000493 ± 0.00022 s⁻¹. Moreover, the “self-cleavage kobs at 640 uM GlcN6P” value in the data set with glucosamine-6-phosphate [3] stood at 6.46e-05 ± 1.6e-05 s⁻¹. Besides, the “self-cleavage kobs at 2500 uM GlcN6P” value with glucosamine-6-phosphate [4] amounted to 0.000366 ± 0.0001 s⁻¹. Moreover, the “self-cleavage kobs at 10000 uM GlcN6P” value with glucosamine-6-phosphate [5] was 0.000332 ± 8.4e-05 s⁻¹.
Consider U54G U65G, for which the kcat with glucosamine-6-phosphate [1] stood at 0.00368 ± 0.00099 s⁻¹. The KM in the data set with glucosamine-6-phosphate [2] worked out at 3430 ± 1300 µM. Further, the “self-cleavage kobs at 40 uM GlcN6P” value in the data set with glucosamine-6-phosphate [6] came to 5.92e-05 ± 6.8e-06 s⁻¹. Also, in the data set with glucosamine-6-phosphate [7], the “self-cleavage kobs at 160 uM GlcN6P” value worked out at 0.00012 ± 2.1e-05 s⁻¹. The “self-cleavage kobs at 640 uM GlcN6P” value with glucosamine-6-phosphate [3] turned out to be 0.000629 ± 9e-05 s⁻¹. Besides, the “self-cleavage kobs at 2500 uM GlcN6P” value with glucosamine-6-phosphate [4] is 0.00144 ± 0.00021 s⁻¹. Further, in the data set with glucosamine-6-phosphate [5], the “self-cleavage kobs at 10000 uM GlcN6P” value was found to be 0.00282 ± 0.00029 s⁻¹.
As for U54C G66A, in the data set with glucosamine-6-phosphate [1], the kcat came to 0.011 ± 0.0023 s⁻¹. Besides, the KM with glucosamine-6-phosphate [2] stood at 1100 ± 320 µM. The “self-cleavage kobs at 40 uM GlcN6P” value with glucosamine-6-phosphate [6] came out at 0.000397 ± 5.3e-05 s⁻¹. Also, the “self-cleavage kobs at 160 uM GlcN6P” value with glucosamine-6-phosphate [7] was 0.00112 ± 0.0004 s⁻¹. The “self-cleavage kobs at 640 uM GlcN6P” value in the data set with glucosamine-6-phosphate [3] is 0.00522 ± 0.0011 s⁻¹. The “self-cleavage kobs at 2500 uM GlcN6P” value with glucosamine-6-phosphate [4] stood at 0.00593 ± 0.0014 s⁻¹. The “self-cleavage kobs at 10000 uM GlcN6P” value with glucosamine-6-phosphate [5] turned out to be 0.0118 ± 0.0022 s⁻¹.
For G32C C67G, the kcat with glucosamine-6-phosphate [1] is 2.22e-05 ± 2.6e-06 s⁻¹. Also, the KM in the data set with glucosamine-6-phosphate [2] turned out to be 2060 ± 980 µM. For the same variant, the “self-cleavage kobs at 10000 uM GlcN6P” value in the data set with glucosamine-6-phosphate [5] came out at 1.85e-05 ± 8.6e-06 s⁻¹.
A42C U69G: in the data set with glucosamine-6-phosphate [1], the turnover number (kcat) amounted to 0.00638 ± 0.0012 s⁻¹. Besides, the Michaelis-Menten constant (KM) with glucosamine-6-phosphate [2] was determined as 129 ± 51 µM. In addition, the “self-cleavage kobs at 40 uM GlcN6P” value in the data set with glucosamine-6-phosphate [6] was 0.00174 ± 0.00021 s⁻¹. In addition, the “self-cleavage kobs at 160 uM GlcN6P” value with glucosamine-6-phosphate [7] came to 0.00249 ± 0.00048 s⁻¹. Besides, the “self-cleavage kobs at 640 uM GlcN6P” value with glucosamine-6-phosphate [3] is 0.00686 ± 0.0012 s⁻¹. In addition, the “self-cleavage kobs at 2500 uM GlcN6P” value in the data set with glucosamine-6-phosphate [4] came out at 0.00742 ± 0.0017 s⁻¹. For the same variant, the “self-cleavage kobs at 10000 uM GlcN6P” value with glucosamine-6-phosphate [5] came out at 0.00624 ± 0.00083 s⁻¹.
With G66U U69A, the kcat in the data set with glucosamine-6-phosphate [1] came to 0.000163 ± 3e-05 s⁻¹. Further, the “self-cleavage kobs at 160 uM GlcN6P” value with glucosamine-6-phosphate [7] turned out to be 7.46e-05 ± 3e-05 s⁻¹. In addition, the “self-cleavage kobs at 640 uM GlcN6P” value in the data set with glucosamine-6-phosphate [3] was found to be 8.9e-05 ± 1.5e-05 s⁻¹. Moreover, the “self-cleavage kobs at 2500 uM GlcN6P” value with glucosamine-6-phosphate [4] was 0.000118 ± 2.1e-05 s⁻¹. Besides, the “self-cleavage kobs at 10000 uM GlcN6P” value with glucosamine-6-phosphate [5] is 0.000191 ± 3.2e-05 s⁻¹.
As for G37U A52G, the kcat with glucosamine-6-phosphate [1] was < 1e-05 s⁻¹. Moreover, the “self-cleavage kobs at 40 uM GlcN6P” value with glucosamine-6-phosphate [6] was < 1e-05 s⁻¹. In the data set with glucosamine-6-phosphate [3], the “self-cleavage kobs at 640 uM GlcN6P” value was < 1e-05 s⁻¹.
Consider G40C U69C, for which, in the data set with glucosamine-6-phosphate [1], the kcat was determined as 7.37e-05 ± 2.1e-05 s⁻¹. For the same variant, the “self-cleavage kobs at 2500 uM GlcN6P” value in the data set with glucosamine-6-phosphate [4] was 5.5e-05 ± 1.1e-05 s⁻¹. Moreover, in the data set with glucosamine-6-phosphate [5], the “self-cleavage kobs at 10000 uM GlcN6P” value stood at 5.63e-05 ± 1.4e-05 s⁻¹.
For G38A U45A, the kcat with glucosamine-6-phosphate [1] was < 1e-05 s⁻¹. Further, in the data set with glucosamine-6-phosphate [3], the “self-cleavage kobs at 640 uM GlcN6P” value is < 1e-05 s⁻¹.
Regarding U46C A52U, the kcat with glucosamine-6-phosphate [1] was determined as 0.0006 ± 0.00022 s⁻¹. Further, the “self-cleavage kobs at 40 uM GlcN6P” value in the data set with glucosamine-6-phosphate [6] is < 1e-05 s⁻¹. In the data set with glucosamine-6-phosphate [3], the “self-cleavage kobs at 640 uM GlcN6P” value is 3.24e-05 ± 1.6e-05 s⁻¹. Further, the “self-cleavage kobs at 2500 uM GlcN6P” value with glucosamine-6-phosphate [4] was 6.32e-05 ± 1.1e-05 s⁻¹. Also, in the data set with glucosamine-6-phosphate [5], the “self-cleavage kobs at 10000 uM GlcN6P” value came to 0.000199 ± 2.3e-05 s⁻¹.
For U46G U65C, the kcat in the data set with glucosamine-6-phosphate [1] was found to be 4.23e-05 ± 1.3e-06 s⁻¹. The KM with glucosamine-6-phosphate [2] came out at 1730 ± 260 µM. Also, the “self-cleavage kobs at 10000 uM GlcN6P” value with glucosamine-6-phosphate [5] was determined as 3.6e-05 ± 7.3e-06 s⁻¹.
On to A12U G37A, for which, in the data set with glucosamine-6-phosphate [1], the kcat was determined as 0.0147 ± 0.0035 s⁻¹. Moreover, the KM with glucosamine-6-phosphate [2] was determined as 4700 ± 1500 µM. Moreover, in the data set with glucosamine-6-phosphate [6], the “self-cleavage kobs at 40 uM GlcN6P” value is 0.000169 ± 2.3e-05 s⁻¹. The “self-cleavage kobs at 160 uM GlcN6P” value with glucosamine-6-phosphate [7] came out at 0.000398 ± 7.4e-05 s⁻¹. Besides, in the data set with glucosamine-6-phosphate [3], the “self-cleavage kobs at 640 uM GlcN6P” value was found to be 0.00168 ± 0.00025 s⁻¹. Also, in the data set with glucosamine-6-phosphate [4], the “self-cleavage kobs at 2500 uM GlcN6P” value turned out to be 0.00456 ± 0.001 s⁻¹. Moreover, the “self-cleavage kobs at 10000 uM GlcN6P” value with glucosamine-6-phosphate [5] was 0.0103 ± 0.0011 s⁻¹.
In the case of C10G A39G, the kcat in the data set with glucosamine-6-phosphate [1] was < 1e-05 s⁻¹. Also, the “self-cleavage kobs at 160 uM GlcN6P” value with glucosamine-6-phosphate [7] was < 1e-05 s⁻¹.
